From US20260217864A1 (JANUX THERAPEUTICS, published 2026)
Where a chain is given by its changes, count along the chain named.

B1: TCE-4 (bispecific antibody)
light: not shown
heavy: EVQLVESGGGLVQPGGSLRLSCAASGFSITSDYAWNWVRQAPGKGLEWVGYISNSGSISYNPSLKSRFTISRDNSKNTLYLQMNSLRAEDTAVYYCARERNYDYDDYYYAMDYWGQGTLVTVSSASTKGPSVFPLAPSSKSTSGGTAALGCLVKDYFPEPVTVSWNSGALTSGVHTFPAVLQSSGLYSLSSVVTVPSSSLGTQTYICNVNHKPSNTKVDKKVEPKSC
B2: TCE-26 (bispecific antibody)
light: not shown
heavy: B1 heavy with A24V, F27Y, I58T, N74T
B3: TCE-81 (bispecific antibody)
light: not shown
heavy: B1 heavy with A24V, F27Y, I58T, N74T
B4: TCE-83 (bispecific antibody)
light: not shown
heavy: B1 heavy with A24V, F27Y, I58T, N74T
B5: TCE-80 (bispecific antibody)
light: not shown
heavy: B1 heavy with A24V, F27Y, I58T, N74T
B6: TCE-88 (bispecific antibody)
light: not shown
heavy: B1 heavy with A24V, F27Y, I58T, N74T
B7: TCE-85 (bispecific antibody)
light: not shown
heavy: B1 heavy with A24V, F27Y, I58T, N74T
B8: TCE-87 (bispecific antibody)
light: not shown
heavy: B1 heavy with A24V, F27Y, I58T, N74T
B9: TCE-89 (bispecific antibody)
light: not shown
heavy: B1 heavy with A24V, F27Y, I58T, N74T
B10: TCE-82 (bispecific antibody)
light: not shown
heavy: B1 heavy with A24V, F27Y, I58T, N74T
B11: TCE-84 (bispecific antibody)
light: not shown
heavy: B1 heavy with A24V, F27Y, I58T, N74T
B12: TCE-79 (bispecific antibody)
light: not shown
heavy: B1 heavy with A24V, F27Y, I58T, N74T
B13: TCE-86 (bispecific antibody)
light: not shown
heavy: B1 heavy with A24V, F27Y, I58T, N74T
B14: TCE-90 (bispecific antibody)
light: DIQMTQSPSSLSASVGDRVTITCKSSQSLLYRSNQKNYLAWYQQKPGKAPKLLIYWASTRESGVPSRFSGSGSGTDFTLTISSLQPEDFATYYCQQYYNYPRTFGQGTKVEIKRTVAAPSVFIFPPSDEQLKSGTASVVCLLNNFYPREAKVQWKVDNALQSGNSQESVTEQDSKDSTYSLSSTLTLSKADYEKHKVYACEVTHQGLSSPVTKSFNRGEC
heavy 1: EVQLVESGGGLVQPGGSLRLSCAVSGYSITSDYAWNWVRQAPGKGLEWVGYISNSGSTSYNPSLKSRFTISRDTSKNTLYLQMNSLRAEDTAVYYCARERNYDYDDYYYAMDYWGQGTLVTVSSASTKGPSVFPLAPSSKSTSGGTAALGCLVKDYFPEPVTVSWNSGALTSGVHTFPAVLQSSGLYSLSSVVTVPSSSLGTQTYICNVNHKPSNTKVDKKVEPKSCDKTHTCPPCPAPELLGG
chain: not shown
heavy 2: not shown
B15: TCE-93 (bispecific antibody)
light: EIVLTQSPATLSLSPGERATLSCRASSSVSYMHWFQQKPGQAPRLLIYSTSNLASGIPARFSGSGSGTDYTLTISSLEPEDFAVYYCQQRRSFPYTFGQGTKLEIKRTVAAPSVFIFPPSDEQLKSGTASVVCLLNNFYPREAKVQWKVDNALQSGNSQESVTEQDSKDSTYSLSSTLTLSKADYEKHKVYACEVTHQGLSSPVTKSFNRGEC
heavy 1: QVQLVQSGAEVKKPGASVKVSCKASGYTFSTYWIEWVRQAPGQRLEWMGEILPGSGQTDFNEKFQGRVTFTADTSSDTAYMELSSLRSEDTAVYYCTRWGYYGTRGYFNVWGQGTLVTVSSASTKGPSVFPLAPSSKSTSGGTAALGCLVKDYFPEPVTVSWNSGALTSGVHTFPAVLQSSGLYSLSSVVTVPSSSLGTQTYICNVNHKPSDTKVDKKVEPKSCDKTHTCPPCPAPPVAGPSVFLFPPKPKDTLMISRTPEVTCVVVDVKHEDPEVKFNWYVDGVEVHNAKTKPCEEEYGSTYRCVSVLTVLHQDWLNGKEYKCKVSNKALPAPIEKTISKAKGQPREPQVYTLPPSREEMTKNQVSLTCDVSGFYPSDIAVEWESDGQPENNYKTTPPVLDSDGSFFLYSKLTVDKSRWEQGDVFSCSVMHEALHNHYTQKSLSLSPGK
heavy 2: QVQLVQSGAEVKKPGASVKVSCKASGYTFSTYWIEWVRQAPGQRLEWMGEILPGSGQTDFNEKFQGRVTFTADTSSDTAYMELSSLRSEDTAVYYCTRWGYYGTRGYFNVWGQGTLVTVSSASTKGPSVFPLAPSSKSTSGGTAALGCLVKDYFPEPVTVSWNSGALTSGVHTFPAVLQSSGLYSLSSVVTVPSSSLGTQTYICNVNHKPSNTKVDKKVEPKSCGGGGSGGGGSEVQLVESGGGLVQPGGSLRLSCAASGFTFSTYAMNWVRQAPGKGLEWVGRIRSKYNNYATYYADSVKGRFTISRDDSKNTLYLQMNSLRAEDTAVYYCVRHGNFGDSYVSWFAYWGQGTLVTVSSGKPGSGKPGSGKPGSGKPGSQAVVTQEPSLTVSPGGTVTLTCGSSTGAVTTSNYANWVQQKPGKSPRGLIGGTNKRAPGVPARFSGSLLGGKAALTISGAQPEDEADYYCALWYSNHWVFGGGTKLTVLGGGGSGGGGSKTHTCPPCPAPPVAGPSVFLFPPKPKDTLMISRTPEVTCVVVDVKHEDPEVKFNWYVDGVEVHNAKTKPCEEQYGSTYRCVSVLTVLHQDWLNGKEYKCKVSNKALPAPIEKTISKAKGQPREPQVYTLPPSREQMTKNQVKLTCLVKGFYPSDIAVEWESNGQPENNYKTTPPVLDSDGSFFLYSKLTVDKSRWQQGNVFSCSVMHEALHNHYTQKSLSLSPGK
B16: TCE-55 (bispecific antibody)
light: not shown
heavy: B1 heavy with A24V, F27Y, I58T, N74T
B17: TCE-58 (bispecific antibody)
light: not shown
heavy: B1 heavy with A24V, F27Y, I58T, N74T
B18: TCE-69 (bispecific antibody)
light: DIQMTQSPSSLSASVGDRVTITCKSSQSLLYRSNQKNYLAWYQQKPGKAPKLLIYWASTRESGVPSRFSGSGSGTDFTLTISSLQPEDFATYYCQQYYNYPRTFGQGTKVEIKRTVAAPSVFIFPPSDRKLKSGTASVVCLLNNFYPREAKVQWKVDNALQSGNSQESVTEQDSKDSTYSLSSTLTLSKADYEKHKVYACEVTHQGLSSPVTKSFNRGEC
chain: not shown
heavy: not shown
B19: TCE-75 (bispecific antibody)
light: B15 light
heavy: not shown
B20: TCE-76 (bispecific antibody)
light: not shown
heavy: QVQLVQSGAEVKKPGASVKVSCKASGYTFSTYWIEWVRQAPGQRLEWMGEILPGSGQTDFNEKFQGRVTFTADTSSDTAYMELSSLRSEDTAVYYCTRWGYYGTRGYFNVWGQGTLVTVSSASTKGPSVFPLAPSSKSTSGGTAALGCLVKDYFPEPVTVSWNSGALTSGVHTFPAVLQSSGLYSLSSVVTVPSSSLGTQTYICNVNHKPSNTKVDKKVEPKSC

Target: T1, six-transmembrane epithelial antigen of the prostate-1 (STEAP-1) (UniProt Q9UHE8 1-339, limits assumed)
T1 sequence (Q9UHE8 whole entry): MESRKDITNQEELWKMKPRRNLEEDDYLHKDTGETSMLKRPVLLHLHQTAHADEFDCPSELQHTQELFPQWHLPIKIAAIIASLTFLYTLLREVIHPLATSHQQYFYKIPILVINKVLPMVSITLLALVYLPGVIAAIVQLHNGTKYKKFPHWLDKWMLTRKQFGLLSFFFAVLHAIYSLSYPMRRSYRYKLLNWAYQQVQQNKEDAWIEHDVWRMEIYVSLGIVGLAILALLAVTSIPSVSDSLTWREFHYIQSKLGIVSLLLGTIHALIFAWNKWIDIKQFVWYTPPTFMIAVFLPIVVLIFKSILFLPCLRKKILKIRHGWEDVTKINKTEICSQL
Test: cell-based or functional assay

B1 was tested, and the “IC50 (pM), 22Rv1 tumor cell killing in the presence of CD8+ T cells” value was over 10000 pM.

Target: T1, six-transmembrane epithelial antigen of …
Test: cell-based or functional assay
Remark: another data set of the same source

Going from B2 to B14, the “Cell line cytotoxicity EC50 (pM), 22RV1” value falls from 2100 pM to 171 pM.

B15 was tested, and the “Cell line cytotoxicity EC50 (pM), 22RV1” value was 23.2 pM.

Going from B2 to B14, the “Cell line cytotoxicity EC50 (pM), A673” value falls from 45.8 pM to 17.3 pM.

With B15 the “Cell line cytotoxicity EC50 (pM), A673” value was 0.9 pM.

Going from B2 to B15, the “Cell line cytotoxicity EC50 (pM), C4-2B” value falls from 1150 pM to 0.4 pM.

Going from B2 to B14, the “Cell line cytotoxicity EC50 (pM), IM-95” value falls from 147 pM to 11.6 pM.

For B15, the “Cell line cytotoxicity EC50 (pM), IM-95” value was 3.6 pM.

First: B2
Second: B3
The “Cell line cytotoxicity EC50 (pM), LNCaP” value of the first is higher: 585 pM for the first, 239 pM for the second.

Compared with B4, B5 is higher in “Cell line cytotoxicity EC50 (pM), LNCaP” value: 209 pM for the first, 260 pM for the second.

Going from B6 to B7, the “Cell line cytotoxicity EC50 (pM), LNCaP” value rises from 183 pM to 360 pM.

Compared with B8, B9 is lower in “Cell line cytotoxicity EC50 (pM), LNCaP” value: 235 pM for the first, 123 pM for the second.

Compared with B10, B11 is lower in “Cell line cytotoxicity EC50 (pM), LNCaP” value: 214 pM for the first, 192 pM for the second.

Going from B12 to B13, the “Cell line cytotoxicity EC50 (pM), LNCaP” value rises from 163 pM to 232 pM.

First: B14
Second: B15
The “Cell line cytotoxicity EC50 (pM), LNCaP” value of the first is higher: 68.5 pM for the first, 0.2 pM for the second.

In the case of B15, the “Cell line cytotoxicity EC50 (pM), VCaP” value is reported as 1.2 pM.

Target: T1, six-transmembrane epithelial antigen of …
Test: cell-based or functional assay
Remark: another data set of the same source

In the case of B1, the “IC50 (pM), LNCaP tumor cell killing in the presence of CD8+ T cells” value is reported as 1710 pM.

Target: T1, six-transmembrane epithelial antigen of …
Test: cell-based or functional assay
Remark: another data set of the same source

With B1 the “IC50 (pM), VCaP tumor cell killing in the presence of CD8+ T cells” value was over 10000 pM.

Target: T1, six-transmembrane epithelial antigen of …
Test: cell-based or functional assay
Remark: another data set of the same source

Going from B16 to B17, the “Cell line cytotoxicity EC50 (pM), LNCaP” value falls from 1310 pM to 44.5 pM.

Compared with B1, B18 is lower in “Cell line cytotoxicity EC50 (pM), LNCaP” value: 2220 pM for the first, 89.1 pM for the second.

First: B19
Second: B20
The “Cell line cytotoxicity EC50 (pM), LNCaP” value of the first is lower: 5.2 pM for the first, 7.9 pM for the second.

Going from B17 to B1, the “Cell line cytotoxicity EC50 (pM), 22RV1” value rises from 332 pM to over 10000 pM.

With B18 the “Cell line cytotoxicity EC50 (pM), 22RV1” value was 359 pM.

First: B1
Second: B18
The “Cell line cytotoxicity EC50 (pM), IM-95” value of the first is higher: 648 pM for the first, 11.2 pM for the second.

In the case of B1, the “Cell line cytotoxicity EC50 (pM), VCaP” value is reported as over 10000 pM.

Target: T1, six-transmembrane epithelial antigen of …
Test: cell-based or functional assay
Remark: another data set of the same source

Compared with B2, B3 is lower in “EC50/pM, LNCaP tumor cell killing” value: 585 pM for the first, 239 pM for the second.

Going from B4 to B16, the “EC50/pM, LNCaP tumor cell killing” value rises from 209 pM to 1310 pM.

Going from B5 to B6, the “EC50/pM, LNCaP tumor cell killing” value falls from 260 pM to 183 pM.

Compared with B7, B17 is lower in “EC50/pM, LNCaP tumor cell killing” value: 361 pM for the first, 45 pM for the second.

Compared with B8, B9 is lower in “EC50/pM, LNCaP tumor cell killing” value: 235 pM for the first, 123 pM for the second.

Going from B10 to B11, the “EC50/pM, LNCaP tumor cell killing” value falls from 214 pM to 192 pM.

Compared with B12, B13 is higher in “EC50/pM, LNCaP tumor cell killing” value: 163 pM for the first, 233 pM for the second.
